Test results from article PMC12293987, “Dissecting the tRNA Fragment tRF3E–Nucleolin Interaction: Implications in Breast Cancer”.

Columns and labels:
Nucleolin (NCL) [1] = target: T1, Nucleolin (NCL) (UniProt P19338 1-710); assay: EMSA; complex I, NCL in excess; Kd taken as protein concentration retarding 50% of probe; 20 mM Tris-HCl pH 7.5, 50 mM KCl, 10% glycerol, 0.3 mg/mL BSA, 0.02% Nonidet P-40, 15 uL, 2 pmol 32P-RNA, 20 °C 30 min (competition: further 30 min); native 7%; settings: protein: recombinant, tags: His
Nucleolin (NCL) [2] = target: T1, Nucleolin (NCL); assay: EMSA; printed as KD >= 1500 nM; still interacts with very low affinity; 20 mM Tris-HCl pH 7.5, 50 mM KCl, 10% glycerol, 0.3 mg/mL BSA, 0.02% Nonidet P-40, 15 uL, 2 pmol 32P-RNA, 20 °C 30 min (competition: further 30 min); native 7%; settings: protein: recombinant; tags: His; label: 32P; predicted fold, CGA in bubble
Nucleolin (NCL) [3] = target: T1, Nucleolin (NCL); assay: EMSA; complete loss of retardation; 20 mM Tris-HCl pH 7.5, 50 mM KCl, 10% glycerol, 0.3 mg/mL BSA, 0.02% Nonidet P-40, 15 uL, 2 pmol 32P-RNA, 20 °C 30 min (competition: further 30 min); native 7%; settings: protein: recombinant; tags: His; label: 32P; predicted fold, CGA at junction of double-stranded and unstructured region

T1 sequence (P19338 whole entry): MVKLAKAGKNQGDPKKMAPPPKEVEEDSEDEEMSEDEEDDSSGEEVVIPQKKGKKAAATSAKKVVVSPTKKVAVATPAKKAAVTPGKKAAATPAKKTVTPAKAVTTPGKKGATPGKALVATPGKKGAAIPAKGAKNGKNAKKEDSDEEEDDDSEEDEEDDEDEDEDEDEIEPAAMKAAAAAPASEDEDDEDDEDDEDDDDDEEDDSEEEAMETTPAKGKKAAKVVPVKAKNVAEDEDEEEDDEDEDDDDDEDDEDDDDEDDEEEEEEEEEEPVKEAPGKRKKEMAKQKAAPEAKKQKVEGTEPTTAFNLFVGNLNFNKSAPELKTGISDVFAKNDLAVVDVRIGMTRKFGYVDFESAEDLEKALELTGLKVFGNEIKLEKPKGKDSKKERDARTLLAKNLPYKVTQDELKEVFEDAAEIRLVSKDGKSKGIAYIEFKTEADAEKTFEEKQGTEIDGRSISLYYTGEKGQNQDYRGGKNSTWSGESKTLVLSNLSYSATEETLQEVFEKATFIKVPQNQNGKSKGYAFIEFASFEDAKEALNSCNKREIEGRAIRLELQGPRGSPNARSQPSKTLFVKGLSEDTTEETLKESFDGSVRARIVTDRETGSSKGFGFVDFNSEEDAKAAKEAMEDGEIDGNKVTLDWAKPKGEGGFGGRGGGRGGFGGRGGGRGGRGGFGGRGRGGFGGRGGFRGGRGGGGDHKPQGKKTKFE

AGGCGGCCCGGGUUCGACUCCCGGUGUGGGAA (structured_RNA) [wt tRF3E]
Kd (Nucleolin (NCL) [1]; hairpin (predicted stems, CGA 15-17 in loop)): ~280 nM

AGGCGGCCCGGGUUCGACUAAAUGUGUGGGAA (structured_RNA) [M19-24]
Kd (Nucleolin (NCL) [1]; hairpin (predicted, CGA 15-17 in loop)): ~280 nM

AGGCGGAAAUGGUUCGACUAAAUGUGUGGGAA (structured_RNA) [D2M]
Kd (Nucleolin (NCL) [2]): > 1500 nM

AGGCGGAAAUGGUUCGACUCCCGGUGUGGGAA (structured_RNA) [M6-11]
binding result (Nucleolin (NCL) [3]): no binding
